From the nanobody polyreactivity screen of Harvey et al. (2022)

Assay: yeast display, Sf9 membrane polyspecificity reagent, FACS + sequencing; frameworks hold sequencing errors
How it was run: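 Synthetic nanobody libraries on Saccharomyces cerevisiae BJ5465 were galactose-induced for 36–48 hours, stained 1 hour at 4 °C with 10% biotinylated, detergent-solubilized Sf9 membrane reagent and enriched on streptavidin microbeads. FACS then separated cells into low and high (top ~1%) gates by anti-HA (expression) and streptavidin (reagent binding) fluorescence. Genes were colony-PCR amplified, MiSeq 2 × 250 sequenced and CDR-length filtered. A clone's polyreactivity label is that of its gate of origin.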

Row | Sequence | polyreactivity (PSR sort gate)
1 | QVQLVESGGGLVQAGGSLRLSCAASGSIFRRYAMGWYRQAPGKERELVAAITGTGGRTYYADSVKGRFTMSRDNAKNTVYLQMNSLKPEDTAVYYCNKLVTYYRADPEYDYWGQGTHVTVSS | high polyreactivity
2 | QVQLVESGGGLVQAGGSLRLSCAASGSIFRRYAMGWYRQAPGKERELVATISYRGGTTYYADSVKVRFTISRDNAKNTVYLQMNSLKPEDTAVYYCNTLYYRGIYDHWGQGTQVTVSS | high polyreactivity
3 | QVQLVESGGGLVQAGGSLRLSCAASGSIFRRYATGWYRQAPGKERQLVAAISSGGSTYADSVKGRFTISRDNAKNTVYLQMNSLKPEDTAVYYCNASGRWYYGRRYDYWGHGTQVTVSS | low polyreactivity
4 | QVQLVESGGGLVQAGGSLRLSCAASGSIFRSNAMGWYRQAPGKEREVVAAISSRGGSTYYADSVKGRFTISRDNAKNTVYLQMNSLKPEDTAVYFCNKARYTVISYDEYDYWGQGTQVTVSS | high polyreactivity
5 | QVQLVESGGGLVQAGGSLRLSCAASGSIFRSNSMGWYRQAPGKERELVAAISSRGGSTYYADSVKGRFTISRDNAKNTVYLQMNSLKPEDTAVYYCYKDRYTVISYDEYDYWGQGTQVTVSS | high polyreactivity
6 | QVQLVESGGGLVQAGGSLRLSCAASGSIFRSSDMGWYRQAPGKERELVAAISDSTGTTYYADSVKGRFTISRDNAKNTVYLQMNSLKPEDTAVYYCAADYFWYRSGRYHYWGQGTQVTVSS | high polyreactivity
7 | QVQLVESGGGLVQAGGSLRLSCAASGSIFRSYAMGWYRQAPGKERELVAAISRRGGSTYYADSVKGRFTISRDNAKNTVYLQMNSLKPADTGVYYCAAVRYNSRVSTTPSDMYYWGQGTQVTVSS | low polyreactivity
8 | QVQLVESGGGLVQAGGSLRLSCAASGSIFRSYAMGWYRQAPGNERELVAAITRSGGSTYYADSVKGRFTISRDNAKNTVYLQMNSLKPEDTAVYYCAAEYYSYTWGWGHGYWGQGTQVTVSS | high polyreactivity
9 | QVQLVESGGGLVQAGGSLRLSCAASGSIFRTNAMGWYRQAPGKEREFVASISSDSGNTYYADSVKGRFTISRDNAKYTVYLQMNSLKPEDTAVYYCARRKVRYWSYRAANYYWGQGTQVTVSS | low polyreactivity
10 | QVQLVESGGGLVQAGGSLRLSCAASGSIFRTNTMGWYRQAPGKEREFVAAITAIGDSTYYADSVKGRFTISRDNAKNTVYLQMNSLKPEDTAVYYCAAEKVSWGYHFYSSYDYWGQGTQVTVSS | low polyreactivity
11 | QVQLVESGGGLVQAGGSLRLSCAASGSIFRTYTMGWYRQAPGKEREFVAAISRSGGSTYYADSVKGRFTISRDNAKNTVYLQMNSLKPEDTAVYYCNARCGLGSYGYWGQGTQVTVSS | high polyreactivity
12 | QVQLVESGGGLVQAGGSLRLSCAASGSIFRTYTMGWYRQAPGKEREFVAAISRSGGSTYYADSVKGRFTISRDNAKNTVYLQMNSLKPEDTAVYYCNARWGLGSYGYWGQGTQVTVTS | high polyreactivity
13 | QVQLVESGGGLVQAGGSLRLSCAASGSIFRVYAMGWYRQAPGKERELVAAISSSGDSTYYADSVKGRFTISRDNAKNTVYLQMNSLKPEDTAVYYCAADVKQRVKSSTMYYWGQGTQVTVSS | high polyreactivity
14 | QVQLVESGGGLVQAGGSLRLSCAASGSIFRVYAMGWYRQAPGKERELVAAISSSGVRTSYADSVKGRFTISRDNAKNTVYLQMNSLKPEDTAVYYCNAAYGRRYDYWGQGTQVTVSS | high polyreactivity
15 | QVQLVESGGGLVQAGGSLRLSCAASGSIFRVYAMGWYRQAPGKERELVAAITSRGGSTYYADSVKGRFTISRDNAKNTVYLQMNSLKQEDTAVYYCAAAYPYRTGRGYYWGQGTQVTVSS | high polyreactivity
16 | QVQLVESGGGLVQAGGSLRLSCAASGSIFRVYAMGWYRQAPGKERELVAAITYSSGSTYYADSVKGRFTISRDNAKNTVYLQMNSLKPEDTAVYYCAAYWSYYLREFDYWGQGTQVTVSS | high polyreactivity
17 | QVQLVESGGGLVQAGGSLRLSCAASGSIFRVYAMGWYRQAPGKVRELVAVISIAGRTNYADSVKGRFTISRDNAKNTVYLQMNSLKPEDTAVYYCNAEWDLNHLYDSWGQGTQETVSS | low polyreactivity
18 | QVQLVESGGGLVQAGGSLRLSCAASGSIFRWNAMGWSRQATGKERELVAVINSSGGSTYYADSVKGRFTISRDNAKNTVYLQMNSLKPEDTAVYYCAADVFFYVYEAYLLYYWGQGTQVTVSS | low polyreactivity
19 | QVQLVESGGGLVQAGGSLRLSCAASGSIFRWYAIGWYRQAPGKERELVATICWSTGTTYYADSVKGRFTISRDNAKNTVYLQMNSLKPEDTAVYYCAKVSTYRSSYSLKSGYGNDYWGQGTQVTVSS | low polyreactivity
20 | QVQLVESGGGLVQAGGSLRLSCAASGSIFRYNAMGWYRQAPGKERELVAAIDWSGGTYYADSVKGRFTISRDNAKNTVYLQMNSLKPEDTAVYYCNARGSTYSSYWGYDYWGQGTQVTVSS | low polyreactivity
21 | QVQLVESGGGLVQAGGSLRLSCAASGSIFRYNAMGWYRQAPGKERELVAAISQSGGRTSYADSVKGRFTISRDNAKNTVYLQMNSLKPEDTAVYYCAKRAYGYRSIYRMDYWGQGTQVTVSS | high polyreactivity
22 | QVQLVESGGGLVQAGGSLRLSCAASGSIFRYNAMGWYRQAPGKERELVAGITWGGGRTYYADSVKGRFTISRDNAKNTVYLQMNSLKPEDTAVYYCNAVRKYKGDSSFDYWGQGTQVTVSS | high polyreactivity

Row | Sequence | polyreactivity (PSR sort gate)
23 | QVQLVESGGGLVQAGGSLRLSCAASGSIFRYNAMGWYRQAPGKERELVAVIRGTSGDTYYADSVKGRFTISRDNAKNTVYLQMNSLKPEDTAVYYCAAQLAGASYSHSNYSDWFDYWGQGTQVTVSS | low polyreactivity
24 | QVQLVESGGGLVQAGGSLRLSCAASGSIFRYNVMGWYRQAPGKERELVAAISYTGGRKYYADSVKGRFTISRDNAKNTVYLQMNRLKPEETAVYDCAALGWSGRYRYDYWGQGTQVTVAS | high polyreactivity
25 | QVQLVESGGGLVQAGGSLRLSCAASGSIFRYVMGWYRQAPGKERELVAAISIRGGSTYYADSVKGRFTISRDNAKNTVYLQMNSLKPEDTAVYYCAADRYRLGVKYDYWGQGNQVTVSS | high polyreactivity
26 | QVQLVESGGGLVQAGGSLRLSCAASGSIFRYYAMGWSRQAPGKERELVAAISRRGSSTYYADSVKGRFTISRDNAKKTVYLQMNSLKPEDTAVYYCAAGDFKQYDYWGQGTQVTVSS | high polyreactivity
27 | QVQLVESGGGLVQAGGSLRLSCAASGSIFRYYAMGWYRQAPGKEREFVAAISRSGGSTYYADSVKGRFTISRDNAKNTVYLQMNSLKPEDTAVYYCAASYYRYFVSLGYDYWGQGTQVTVSS | high polyreactivity
28 | QVQLVESGGGLVQAGGSLRLSCAASGSIFRYYAMGWYRQAPGKERELVAAINSRGGTTYYADSVKGRFTISRDNAKNTVYLQMNSLKPEDTAVYYCAAGYPPLHTSVQQTAHYGLDYWGQGTQVTVSS | high polyreactivity
29 | QVQLVESGGGLVQAGGSLRLSCAASGSIFRYYAMGWYRQAPGKERELVAAISSSGDNTYYADSVKGRFTISRDNAKNTVYLQMNSLKPEDTAVYYCAVRGERRYIYDYWGQGTQVTVSS | high polyreactivity
30 | QVQLVESGGGLVQAGGSLRLSCAASGSIFRYYAMGWYRQAPGKERELVAAITASGGRTHYADSVKGRFTISRDNAKNTVYLQMNSLKLEDTAVYYCSADLYYAWYWKQHYDYWGQGTQVTVSS | high polyreactivity
31 | QVQLVESGGGLVQAGGSLRLSCAASGSIFRYYAMGWYRQAPGKERELVAAITWRGGGTYYADSVKGRFTISRDNAKNTVYLQMNSLKPEDTAVYYCAKARFTRGTWFYYWGQGTQVTVSS | high polyreactivity
32 | QVQLVESGGGLVQAGGSLRLSCAASGSIFRYYAMGWYRQAPGKERELVARISRNAGRTYYADSVKGRFTISRDNAKNTVYLQMNSLKPEDTAVYYCAADGSKPYAMDYWGQGTQVTVSS | high polyreactivity
33 | QVQLVESGGGLVQAGGSLRLSCAASGSIFRYYAMGWYRQAPGKERELVATISSGGRTYYADSVKGRFTISRDNAKNTVYLQMNSQKPEDTAVYYCAARYGTTRYGFDYWGQGTQVTVSS | high polyreactivity
34 | QVQLVESGGGLVQAGGSLRLSCAASGSIFRYYDMGWYRQAPGKERELVAAISYSDGRTYYADSVKGRFTISRDNAKNTVYLQMNSLKPEDTAVYYCAAETLYVSPYFFVVQYDYWGQGTKVTVSS | high polyreactivity
35 | QVQLVESGGGLVQAGGSLRLSCAASGSIFSANAMGWYRQAPGKERELVAAITSGDSTKYADSVKGRFTISRDNAKNTVYLQMNSLKPEDTAVYYCAVDRGEYKNRVGEEYWGQGTQVTVSS | low polyreactivity
36 | QVQLVESGGGLVQAGGSLRLSCAASGSIFSAYAIGWYRQAPGKERELDAAITKSSVTYYADSVKGRFTISRDNAKNSVYLHMNSLKPEDTAVYYCAAASGGTVVGEVDYWGQGTQVTVSS | low polyreactivity
37 | QVQLVESGGGLVQAGGSLRLSCAASGSIFSAYAMGWYIQAPGKERELVAGITGSGGRTYYADSVKGRFTISRDNAKNTVYLQMNSLKPEDTAVYYCLARSYYNWYDYWGQGTQVTVSS | high polyreactivity
38 | QVQLVESGGGLVQAGGSLRLSCAASGSIFSDYAIGWYSTAPGKERELVASISWTGGGTYYADSVKGRFTISRDNAKNTVYLQMNSVKPEDTGFYYCAAEYSYIMDFWGQGTQVTVSS | high polyreactivity
39 | QVQLVESGGGLVQAGGSLRLSCAASGSIFSDYAMGWYRQAPGKERELVAAITQSGVSTYADSVKGRFTISRDNAKNTVYLQMNSLKPEDTAVYYCAADEVPGFGYPPYPWFDYWGQGTQVTVSS | low polyreactivity
40 | QVQLVESGGGLVQAGGSLRLSCAASGSIFSENTMGWYRPAPGKKRELVADITSGGSTNYADSVKGRFTISRDNAKKTVYLQMNSLKPEDTAVYYCAADYNGEYDYWGLGTQVTVSS | low polyreactivity
41 | QVQLVESGGGLVQAGGSLRLSCAASGSIFSFNVMGWYRQAPGKERELVATITGGGSTNYADSVKGRFTISRDNAKNTVYLQMNSLIPEDTAVYYCAARPVNGGILEYWGQGTQVTVSS | low polyreactivity
42 | QVQLVESGGGLVQAGGSLRLSCAASGSIFSFYTMGWYRQAPGKERELVAAINWSGSRTYYADSVKGRFTISRDNAKKTVYLQMNSLNPEDTAVYYCAARKYYSRAYDYWGQGTQVTVSS | high polyreactivity
43 | QVQLVESGGGLVQAGGSLRLSCAASGSIFSGNAMGWYRQAPGKERELVAAISRSGGSTYYADSVKGRFTISRDYAKNTVYLQMNSLKPEDTAVYYCAKGQYYYIGDYDYWGQGTQVTVSS | high polyreactivity
